This is an account of results in patent EP1161262B1 (University of Maryland, Baltimore, dated 2008).

Assay [1] has as its target T1, colligin/Hsp47 on the surface of human carcinoma cells (human, UniProt P50454 19-418).
T1 construct: whole, on cells; Endogenous protein on cells or in plasma membrane preparations and lysates of surface-biotinylated human SCC cells; also called CBP2; colligin/CBP2/Hsp47
T1 sequence (looked up): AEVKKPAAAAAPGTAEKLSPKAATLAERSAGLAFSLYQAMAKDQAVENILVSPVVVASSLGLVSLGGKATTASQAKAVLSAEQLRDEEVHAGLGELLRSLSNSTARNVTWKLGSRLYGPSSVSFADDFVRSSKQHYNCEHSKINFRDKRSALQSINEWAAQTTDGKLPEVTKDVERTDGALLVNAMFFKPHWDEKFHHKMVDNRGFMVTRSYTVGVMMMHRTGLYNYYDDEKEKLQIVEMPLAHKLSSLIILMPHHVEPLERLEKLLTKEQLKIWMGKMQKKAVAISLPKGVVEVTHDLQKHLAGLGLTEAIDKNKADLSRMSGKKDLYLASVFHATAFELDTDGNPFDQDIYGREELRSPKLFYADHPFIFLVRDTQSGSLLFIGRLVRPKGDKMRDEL
The assay can be described thus: DSP cross-linking of surface-labelled cells, immunoprecipitation with anti-CD81 mAbs.

Assay [2] concerns the target T2, colligin/Hsp47 of the murine Lewis Lung Carcinoma (LL/2) cell line (murine, UniProt P19324 18-417).
T2 construct: whole, on cells; Endogenous protein of LL/2 cells
T2 sequence (looked up): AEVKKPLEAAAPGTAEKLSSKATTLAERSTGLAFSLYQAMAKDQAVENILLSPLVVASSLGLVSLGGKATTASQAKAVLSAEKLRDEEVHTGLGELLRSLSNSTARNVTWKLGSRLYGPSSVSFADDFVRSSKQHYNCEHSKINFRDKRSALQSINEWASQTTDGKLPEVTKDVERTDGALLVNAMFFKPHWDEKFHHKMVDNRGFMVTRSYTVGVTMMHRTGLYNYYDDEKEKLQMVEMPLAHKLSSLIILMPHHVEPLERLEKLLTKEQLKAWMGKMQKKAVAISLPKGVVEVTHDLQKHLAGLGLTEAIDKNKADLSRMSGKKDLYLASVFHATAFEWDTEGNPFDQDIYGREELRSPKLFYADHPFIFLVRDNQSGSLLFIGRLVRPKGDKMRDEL
The description is as above.

B1: CD81 of human SCC cells (other, UniProt P60033 1-236, looked up)
chain: MGVEGCTKCIKYLLFVFNFVFWLAGGVILGVALWLRHDPQTTNLLYLELGDKPAPNTFYVGIYILIAVGAVMMFVGFLGCYGAIQESQCLLGTFFTCLVILFACEVAAGIWGFVNKDQIAKDVKQFYDQALQQAVVDDDANNAKAVVKTFHETLDCCGSSTLTALTTSVLKNNLCPSGSNIISNLFKEDCHQKIDDLFSGKLYLIGIAAIVVAVIMIFEMILSMVLCCGIRNSSVY
notes: whole, on cells
On to B1, for which, in assay [1], the binding result was “no binding”.

B2: CD81 of murine LL/2 cells (other, UniProt P35762 1-236, looked up)
chain: MGVEGCTKCIKYLLFVFNFVFWLAGGVILGVALWLRHDPQTTSLLYLELGNKPAPNTFYVGIYILIAVGAVMMFVGFLGCYGAIQESQCLLGTFFTCLVILFACEVAAGIWGFVNKDQIAKDVKQFYDQALQQAVMDDDANNAKAVVKTFHETLNCCGSNALTTLTTTILRNSLCPSGGNILTPLLQQDCHQKIDELFSGKLYLIGIAAIVVAVIMIFEMILSMVLCCGIRNSSVY
notes: whole, on cells
As for B2, the binding result in assay [2] is recorded as “no binding”.
